In the nanobody polyreactivity screen of Harvey et al. (2022):

Assay: yeast display, Sf9 membrane polyspecificity reagent, FACS + sequencing; frameworks hold sequencing errors
How it was run: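 Nanobodies came from a synthetic yeast display library in Saccharomyces cerevisiae BJ5465, induced with galactose for 36–48 hours and stained for 1 hour at 4 °C with 10% biotinylated, detergent-solubilized Sf9 membrane reagent. Cells were enriched on streptavidin microbeads and then FACS-sorted, with low and high (top ~1%) gates set on anti-HA fluorescence for expression and streptavidin fluorescence for reagent binding. Each polyreactivity label reflects the gate a clone came from. Genes were amplified by colony PCR, sequenced by MiSeq 2 × 250 and filtered by CDR length.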

| Sequence | polyreactivity (PSR sort gate) |
| --- | --- |
| QVQLVESGGGLVLAGGSLRLSCAASGLILPYYTMGWYREAPGKERELVAAIRRTTGSTFYADSVKGRFTISRDNAKNTVYLQMNSLKPEDTAVYYCNVRRTPYRHWTGGGMDYWGQGTQVTVSS | high polyreactivity |
| QVQLVESGGGLVLAGGSLRLSCAASGRTFRYYTMGWFRPAPGKEREFVAAISSTGGTYYADSVKGRFTISRDNAKNTVYLQMNSLNPEDTAVYYCAATFIQVVVNVQLYDYDYWGQGTQVTVSS | low polyreactivity |
| QVQLVESGGGLVLAGGSLRLSCAASGRTFVPYAMGWYRQAPGKERELVAAMSQSGGRTYYTDSVKGRFTISGETAKNTVYLQMNSLNPEDTAVYYCAADVRSSIGHFTLYDYWGQGTQVTVSS | high polyreactivity |
| QVQLVESGGGLVLAGGSLRLSCAASGRTFVQYAMGWYRQAPGTERELVAAISDRGGNTYYADSVKGRFTISRDNAKNTVYLQMNSLKPDDTAVYYCAAKIALDNDYWGQGTQVTVSS | high polyreactivity |
| QVQLVESGGGLVLAGGSLRLSCAASGSIFYVYAMGWYRQAPGKERELVASITWSGGRTYYADSVKGRFTISRDNAKNTVYLQMNSLKPEDTAVYYCNAVSFGARTTSYRYGSCGQGTQVTVSS | high polyreactivity |
| QVQLVESGGGLVLAGGSLRLSCAASGSTFTRNAMGWYRQAPGKERELVATISSGGSTNYADSVKGRFTISRDNAKNTVYLQMNSLKPEDTAVYYCAKRSLYRYYYWGQGPQVTVSS | high polyreactivity |
| QVQLVESGGGLVLAGGSLSLSCAASGSTFIWNAMGWYRQAPGKERELVAAIRRGSSTNYADSVKGRFTISRDNAKNTVYLQMNSLKPEDTAVYYCAKKQVTTDVSSETFVLEMDYWGQGTQVTVSS | low polyreactivity |
| QVQLVESGGGLVPAGGSLRFSCAASGMTFFVNDRGSYRQAPGKERELLAVISFTGDSTFYADSVKGRFTISRDKAQNTVSLQMHSLKPEETAVYYSAADFRRGFSKYSYYLYFDFDYWGQGTQVTVSS | low polyreactivity |
| QVQLVESGGGLVPAGGSLRLSCAASGFIILYYAMGWYRHEPGKERELVAAITTRGGRTYYADSVKGRFTISRDNAKNTVYLQMYSLKPEDTALYYCAADHLYWGLEDESWGQGTQVTVSS | low polyreactivity |
| QVQLVESGGGLVPAGGSLRLSCAASGIIFGTYAMGWYRQEPGKERELVAAIRRTGTGTYYADSVKGRFTISRDNAKNTVYLQMNSLKPEDTAVYYCNVVRSYAYDYWGQGTQVTVSS | high polyreactivity |
| QVQLVESGGGLVPAGGSLRLSCAASGRTFYYYAMGWYRQAPGKERELVAAIRRSGSSTYYADSVKGRFTISRDNAKNTVYLQMNSLKPEDTAVYYCAARPRRPRSNYWGQGTQVSVSS | high polyreactivity |
| QVQLVESGGGLVPAGGSLRLSCAASGSIFGKNAMGSYRQAPGNERELVAAITRRGGSTYYADSVKGRFTISRDNAKNTVYLQMNSLKAEDTAVYYCAAVSHYPAGYDYWGQGTQVTVSS | high polyreactivity |
| QVQLVESGGGLVPARGSLRLSCAASGNIFFVYDMGWYRQAPGKERELVAAISWSGGSTYADSVKGRFTISRDNGKNNVYLQMNSLKPEDTGVYYCAADVAYVEYDYWGQGSQVTVSS | low polyreactivity |
| QVQLVESGGGLVQAAGSLRLSCAASGLIFQNYPMGWYRQAPGKERELVARISRRGGSTYYADSVKGRFTISRDNAKNPVYLQMISLKQEDTAVYYCAAGWTRWTSKRFEYWGQGTQVTVSS | high polyreactivity |
| QVQLVESGGGLVQAAGSLRLSCAASGRTFKVYAMGWYRQAPGKERELVAAITWRGGRTYYADSVKGRFTISSDNAKNTVYLQMNSLKPEDTAVYDCAADLYYLTHDYWGQGTQVTVSS | high polyreactivity |
| QVQLVESGGGLVQAAGSLRLSCAASGSIFETYAMGWYRHAPGKERELVAAITQSGGSTYYADSVKGRFTISRDNAKNTVYLQMNSLKPEDTEVYYCAADLFVWWNWGYEYWGQGTQVTVSS | low polyreactivity |
| QVQLVESGGGLVQAAGSLRLSCAASGSIFFYNAMGWYRQAPGIERELVAAITGGGGRTYYADSVKGRFTISRDNAKNTVYLQMNSLKPEDTAVYYCNKDWAQPYDYWGQGTQVTVSS | high polyreactivity |
| QVQLVESGGGLVQAAGSLRLSCAASGSIFTYYAKGCYRQATRKERELVATINRIGGNTYDADSVKGRFTLSSDNAKNTVYLQMNRLKPEDNAVYYCAAKPTYRGYGYGSWGQGTQVTVSS | low polyreactivity |
| QVQLVESGGGLVQAAGSLRLSCAASGSTFGYNTMGWYRQAPGKERELVAGITYSGGRTYYADSVKGRFTISRDNAKNTVYLQMNSLKPADTAVYYCAALYGRGGYRNQPKSTTGMDYWGQGTQVTVSS | high polyreactivity |
| QVQLVESGGGLVQAAGSLRLSCAASGSTFQYYAMGWYRQAPGKERELVAAISASVDTTFYADSVKGRFTISRDNAKNTVYLQMNSLKPEDTAVYYCAKRYVDPLGSGTHGSWGQGTQVTVSS | low polyreactivity |
| QVQLVESGGGLVQAAGSLRLSCAASGYTSSVYAMGWYIQAHGKERELVAAISADGGSTYYADSVKGRFTISRDNAKNTVYLQMNSLKPEDTAVYYCAKYTYPYTPYSWWYDYWGQGTQVTVSS | low polyreactivity |
| QVQLVESGGGLVQAAGSVRLSCAASGITFTQYAMGRYRHAPGKESECVAGITFSGSSTYYADSVKGRFTISRDNSKNTVYLQMNSLKPEDTAVYYCAAESWYKYIYGYPRLFDYWGQATQVTVSS | low polyreactivity |

| Sequence | polyreactivity (PSR sort gate) |
| --- | --- |
| QVQLVESGGGLVQAARTLRISCAASGYIFQYNSMRWYRPAPGKERELVAPSRYRGTSTYYADSVKGRFTISRDNAKNTDYSQMNRLKPEDTAVYYCAADSVQGRGFFGYGYWGQGTHVTVSS | high polyreactivity |
| QVQLVESGGGLVQAEGSLRLSCAASGIIFFHNAMGWYRQAPGKERELVATISRSGGSTYYADSVKGRFTISRDNAKNTVYLQMNSLKPEDTAVYYCAARQSIFYSWTGVEYYYWGQGTQVTVSS | low polyreactivity |
| QVQLVESGGGLVQAEGSLRLSCAASGSTLLYAMGWYRQAPGKERELVAAISIGDSTNYADSVKGRFTISRDNAKNTVYLQMNSLKPEDTAVYYCNADQGSNYYWGQGTQVTVSS | low polyreactivity |
| QVQLVESGGGLVQAGASHRLSCAASGRIFGGYAMGSDRQAPGKERELVAAISSRGGSTYYADSVKGRFTISRDNAKNTVYLLMNSLKPEETAVYYCAADGRVKGWGQGTQVTVSS | high polyreactivity |
| QVQLVESGGGLVQAGASLRLICDASGSIFPYNAMGWYRQAPGKERELVAVITSSGGSTYYADSVKGRFTISRDNAKNTVYLQLNSLKPEDTAVYYCAVLNHRVDSVLTRYYYWGQGTQVTVSS | low polyreactivity |
| QVQLVESGGGLVQAGASLRLSCAASASTFKGNAMGWYRQAPGKERELVAAINRSGTSTYYADSVKGRFTISRDNAKNSVYLQMNSLKPEDTAVYYCAKNYFGHRFDYWGQGTQVTVSS | high polyreactivity |
| QVQLVESGGGLVQAGASLRLSCAASGFILYRYAMGWYRQAPGKERELVAAISRRGGSTYYADSVKGRFTISRDNAKNTVYLQMNSLKPEDTAVYYCAADARYTRYDYWGQGTQVTVSS | high polyreactivity |
| QVQLVESGGGLVQAGASLRLSCAASGFTFTPYAMGWYRQAPGKEREMVAAISWGDGSTYYADSVKGRFTISRDNAKNTVYLQMNSLKPEDTAVYYCAADFDFYYDWIYYYWGQGTQVTVSS | high polyreactivity |
| QVQLVESGGGLVQAGASLRLSCAASGFTFYSYDMGWYRQAPGKERELVAVITERGSSTYYADSVKGRFTISRDNAKNTVYLQMNSLKPEDTAVYYCAAYSEYYGVYYWGQGTLVTVSS | low polyreactivity |
| QVQLVESGGGLVQAGASLRLSCAASGIIVTQYAMGWYRQAPGKESEIVATFSSGGARTYYADSVKGRFTISRDNAKNTVYLQMKSQKPEDTAVYYCDARRYRGYSPPYDYCGQGTQVTVSS | high polyreactivity |
| QVQLVESGGGLVQAGASLRLSCAASGITFVHYAMGWYRQAPWKEREFVAAITKGGGSTSYADSVKGRFTISRDNAKNTVYLQMNSLKPEDTAVDYCAKRYWGTKYGITARFDYWGQGTQVTVSS | high polyreactivity |
| QVQLVESGGGLVQAGASLRLSCAASGNILRGYAMRWYRQAPGKERELVAAINRGGGSTYYADSVKVRFTISRDNAKNTVYLQMNSLKPEDTAVYYCAARYPHRGYTFDYLGQGTQVTVSS | low polyreactivity |
| QVQLVESGGGLVQAGASLRLSCAASGNTFIHNAMGRYRQAPGKERELVAAINWSGGRTYYADSVKGRFTISRDNAKNTVYLQMNCLKPEDTAVYYCARGTRWTYNMYYWGQGTQVTVSS | high polyreactivity |
| QVQLVESGGGLVQAGASLRLSCAASGRIFSFYAMGWYRQAPGKERELVAAISSGGNTYYADSVKGRFTISRDNAKNTVYLQMNSLKPEDTAVYYCATGYRKLSSRYGYWGQGTQVTVSS | high polyreactivity |
| QVQLVESGGGLVQAGASLRLSCAASGRISYYYTMGWYRQAPGKERELVAAISWSGGTTYYADSVKGRFTISRDNAKNTVYLQMNSLKPDDTAVYYCAAREYYTDVHGTRRYDYWGQGTQVTVSS | low polyreactivity |
| QVQLVESGGGLVQAGASLRLSCAASGRTFGKYAMGWYRQAPGKERELVAAITTRVVITYYADSVKGRFTISRDTAKITVYLQMNSLKPEDSADYYCAAVSIYWGQGTQVTVSS | low polyreactivity |
| QVQLVESGGGLVQAGASLRLSCAASGRTFPGYAMGWSRQAPGKERELVAAITYRGGSTYYADSVKGRFTISRDNAKNTVYLQMNSLKPEDTAVYYCNARHSRSRFYYWGQGTQVTVSS | high polyreactivity |
| QVQLVESGGGLVQAGASLRLSCAASGSILVDNAMGSYRQAPWKERELVARITGSGGSTYYADSVKGRCTISRDNAKNTVYLQMNSLKPEDTAVYYCAARRVNAGWTYGLRGNYWGQGSQVTVSS | low polyreactivity |
| QVQLVESGGGLVQAGASLRLSCAASGSTFPYYAMGWYRQAPGKERELVAAISGSGGTTYYADSVKGRFTISRDNAKNTVYLQMNSLKPEDTEVYYCAVDIGVGYGYYYWGQGTQVTVSS | low polyreactivity |
| QVQLVESGGGLVQAGASLRLSCAPSGSIFLAYAMGWYRQAPGKEREFVAALSFTDGSTYYADSVKGRFTISRDNAKNTVYLQMNSLKPEDTAVYYCNKGASPDDYDYWGQGTQVTVSS | low polyreactivity |
| QVQLVESGGGLVQAGASLRLSSAASGRTFRRNAKRWYRQAAGKERELVAFITGTGSTTYYADSVKGRFTISRDNAKNTVYLQMYSLKPEDTAVYYCAASSKYQDYWGQGTQVTVSS | high polyreactivity |
